{"source": "patent US20220089678A1", "binders": {"B1": {"name": "CAR with OX40-CD3z cytoplasmic domain of SEQ ID: 105 (protein, part only; not given: anti-BCMA scFv, hinge, transmembrane, part only)", "chain, part": "RRDQRLPPDAHKPPGGGSFRTPIQEEQADAHSTLAKIRVKFSRSADAPAYQQGQNQLYNELNLGRREEYDVLDKRRGRDPEMGGKPRRKNPQEGLYNELQKDKMAEAYSEIGMKGERRRGKGHDGLYQGLSTATKDTYDALHMQALPPR"}}, "molecular_target": "human BCMA on cells (human) (UniProt Q02223)", "sequence (Q02223 whole entry)": "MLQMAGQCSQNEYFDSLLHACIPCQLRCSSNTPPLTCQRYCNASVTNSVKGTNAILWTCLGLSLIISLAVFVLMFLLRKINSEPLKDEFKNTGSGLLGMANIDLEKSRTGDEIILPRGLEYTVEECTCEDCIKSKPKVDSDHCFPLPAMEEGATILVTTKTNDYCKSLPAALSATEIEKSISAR", "assay": "cell-based or functional assay"}
{"binder": "B1", "values": [{"measurement": "Killing (% killed), Effector:target ratio of 1:10", "result": 46, "unit": "%"}]}
